In US20160102323, “A LAGLIDADG HOMING ENDONUCLEASE CLEAVING THE C-C CHEMOKINE RECEPTOR TYPE-5 (CCR5) GENE AND USES THEREOF” (CELLECTIS, published 2016):

Assays:
Assay in all cases: flow; yeast surface display titration; unit as printed (uM)
I-OnuI (wild type) = target: T1, I-OnuI (wild type) (Ophiostoma novo-ulmi); details: label: fluorescent dye
T1 chain: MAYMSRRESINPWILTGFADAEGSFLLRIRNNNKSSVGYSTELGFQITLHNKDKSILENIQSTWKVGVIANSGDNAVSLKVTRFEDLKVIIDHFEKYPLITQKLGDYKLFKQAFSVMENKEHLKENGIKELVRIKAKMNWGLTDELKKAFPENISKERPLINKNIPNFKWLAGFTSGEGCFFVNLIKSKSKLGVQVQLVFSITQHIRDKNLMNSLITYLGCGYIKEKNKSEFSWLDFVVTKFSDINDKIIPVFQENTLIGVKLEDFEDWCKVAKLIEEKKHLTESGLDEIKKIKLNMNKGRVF
Procedure: (§1) The LHEs containing the engineered DNA recognition interfaces for the CCR5_S02 (SEQ ID NO: 3) and CCR5_S08 (SEQ ID NO: 5) targets were tested for affinity, specificity, and toxicity characteristics. Affinity was tested by independently incubating yeast displaying the CCR5_S02_1F5 variant, (SEQ ID NO: 09 encoding SEQ ID NO: 10), and the CCR5_S08_1B6 variant (SEQ ID NO: 11 encoding SEQ ID NO: 12), with DNA substrates containing their target sequences at various concentrations. See FIG. 4 showing the affinity properties of these two variants relative to the wild-type I-OnuI protein. […] Specificity was tested by analyzing the relative ability of each LHE to cleave target sequences containing each of the three alternate DNA base pairs at each position along the substrate. See FIG. 5 illustrating the specificity profile of the CCR5_S02_1F5 and CCR5_S08_1B6 variants. […] Toxicity was analyzed by in vitro transcribing each LHE into mRNA and transfecting primary human T cells by electroporation, followed by flow cytometry analysis of the survival of the cells relative to transfection with a control mRNA encoding a blue fluorescent protein (BFP). See FIG. 6 showing flow cytometry analysis of primary human T cells after treatment with the CCR5_S02_1F5 and CCR5_S08_1B6 variants.

[1] = target: T2, CCR5_S08_1B6 I-OnuI variant (artificial (I-OnuI derived)); details: label: Alexa Fluor 647 / biotin in cleavage assay
T2 chain: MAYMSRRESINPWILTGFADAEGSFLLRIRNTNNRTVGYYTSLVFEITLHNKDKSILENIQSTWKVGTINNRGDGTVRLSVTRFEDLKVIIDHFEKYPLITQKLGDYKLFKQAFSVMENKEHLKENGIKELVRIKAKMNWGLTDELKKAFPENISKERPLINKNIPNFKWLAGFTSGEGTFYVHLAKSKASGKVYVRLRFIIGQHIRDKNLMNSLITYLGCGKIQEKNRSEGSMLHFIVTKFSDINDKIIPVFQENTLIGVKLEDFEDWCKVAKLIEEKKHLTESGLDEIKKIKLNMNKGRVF
Procedure: as §1

[2] = target: T3, CCR5_S02_1F5 I-OnuI variant (artificial (I-OnuI derived)); details: label: Alexa Fluor 647 / biotin in cleavage assay
T3 chain: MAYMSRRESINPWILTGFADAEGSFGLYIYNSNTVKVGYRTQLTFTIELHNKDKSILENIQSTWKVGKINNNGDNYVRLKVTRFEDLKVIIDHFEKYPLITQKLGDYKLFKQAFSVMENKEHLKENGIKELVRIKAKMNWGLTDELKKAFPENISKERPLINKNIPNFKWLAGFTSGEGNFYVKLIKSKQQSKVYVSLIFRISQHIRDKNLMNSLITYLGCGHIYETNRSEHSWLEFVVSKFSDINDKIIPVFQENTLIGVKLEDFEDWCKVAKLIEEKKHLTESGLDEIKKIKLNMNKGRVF
Procedure: as §1

B1: I-OnuI native target (dsDNA)
DNA 1: TTTCCACTTATTCAACCTTTTA
DNA 2: TAAAAGGTTGAATAAGTGGAAA
Kd (I-OnuI (wild type)): ~80 µM

B2: CCR5_S08 target (dsDNA)
DNA 1: CTTCCAGGAATTCTTTGGCCTG
DNA 2: CAGGCCAAAGAATTCCTGGAAG
Kd [1]: ~20 µM

B3: CCR5_S02 target (dsDNA)
DNA 1: ATGAAGAAGATTCCAGAGAAGA
DNA 2: TCTTCTCTGGAATCTTCTTCAT
Kd [2]: ~35 µM
